Test results from patent US20160244525A1 (Genentech, published 2016).

T1: FGFR1-IIIb (human, UniProt P11362-19 22-376, limits assumed)
T1 construct: Soluble FGFR antigen in SPR
T1 sequence (looked up): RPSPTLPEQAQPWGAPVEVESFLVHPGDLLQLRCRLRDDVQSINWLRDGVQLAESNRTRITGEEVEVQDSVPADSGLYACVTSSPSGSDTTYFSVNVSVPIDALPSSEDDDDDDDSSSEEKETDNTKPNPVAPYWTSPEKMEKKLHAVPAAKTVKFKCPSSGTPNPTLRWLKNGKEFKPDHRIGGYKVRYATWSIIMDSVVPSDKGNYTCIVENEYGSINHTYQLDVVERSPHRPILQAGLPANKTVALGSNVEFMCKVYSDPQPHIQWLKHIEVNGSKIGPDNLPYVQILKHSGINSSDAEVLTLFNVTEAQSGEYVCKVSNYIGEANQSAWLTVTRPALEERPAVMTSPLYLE

T2: FGFR3-IIIc (human, UniProt P22607 23-375, limits assumed)
T2 construct: also called human FGFR3-IIIc
T2 sequence: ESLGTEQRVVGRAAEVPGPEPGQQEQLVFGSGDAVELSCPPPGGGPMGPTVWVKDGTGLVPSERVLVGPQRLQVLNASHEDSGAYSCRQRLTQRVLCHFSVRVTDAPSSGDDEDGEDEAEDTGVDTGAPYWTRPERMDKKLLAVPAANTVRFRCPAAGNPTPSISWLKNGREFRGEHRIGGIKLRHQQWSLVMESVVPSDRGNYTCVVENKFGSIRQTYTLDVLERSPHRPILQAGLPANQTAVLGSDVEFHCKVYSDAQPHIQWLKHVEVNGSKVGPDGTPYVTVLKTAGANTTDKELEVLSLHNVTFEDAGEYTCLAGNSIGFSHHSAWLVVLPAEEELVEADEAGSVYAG

T3: FGFR2-IIIb (D2D3) (human)
T3 construct: also called human FGFR2-IIIb ECD (residue 140-369)
T3 chain: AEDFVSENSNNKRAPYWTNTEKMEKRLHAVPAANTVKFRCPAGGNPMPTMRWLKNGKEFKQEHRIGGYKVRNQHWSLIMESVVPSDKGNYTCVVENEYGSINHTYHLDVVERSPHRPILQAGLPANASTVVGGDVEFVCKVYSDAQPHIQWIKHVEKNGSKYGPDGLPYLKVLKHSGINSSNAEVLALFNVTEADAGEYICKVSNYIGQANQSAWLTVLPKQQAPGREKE

T4: FGFR4 (human, UniProt P22455 22-369, limits assumed)
T4 construct: also called human FGFR4; FGFR4-His
T4 sequence (looked up): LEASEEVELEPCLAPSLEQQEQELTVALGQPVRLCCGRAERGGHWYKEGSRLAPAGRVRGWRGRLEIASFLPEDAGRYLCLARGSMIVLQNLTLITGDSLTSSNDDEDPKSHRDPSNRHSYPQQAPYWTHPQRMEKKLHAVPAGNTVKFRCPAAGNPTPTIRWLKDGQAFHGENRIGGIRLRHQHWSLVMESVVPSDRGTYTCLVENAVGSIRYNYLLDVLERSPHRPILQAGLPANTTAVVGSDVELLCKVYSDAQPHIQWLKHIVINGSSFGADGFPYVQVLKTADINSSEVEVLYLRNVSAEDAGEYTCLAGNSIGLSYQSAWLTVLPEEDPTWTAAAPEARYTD

T5: FGFR4-6xHis (human, UniProt P22455 22-369, limits assumed)
T5 sequence: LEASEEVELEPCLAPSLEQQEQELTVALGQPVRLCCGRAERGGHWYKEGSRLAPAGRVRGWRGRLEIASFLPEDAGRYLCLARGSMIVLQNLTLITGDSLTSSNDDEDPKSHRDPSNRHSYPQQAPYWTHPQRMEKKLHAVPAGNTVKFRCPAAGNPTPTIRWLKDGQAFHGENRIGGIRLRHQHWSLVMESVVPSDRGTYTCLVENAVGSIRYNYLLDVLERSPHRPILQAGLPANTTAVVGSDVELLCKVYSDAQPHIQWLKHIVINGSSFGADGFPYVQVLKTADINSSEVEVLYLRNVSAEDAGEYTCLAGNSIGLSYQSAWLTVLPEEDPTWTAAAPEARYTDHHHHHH

T6: FGFR4-Fc (human, UniProt P22455 22-369)
T6 sequence (looked up): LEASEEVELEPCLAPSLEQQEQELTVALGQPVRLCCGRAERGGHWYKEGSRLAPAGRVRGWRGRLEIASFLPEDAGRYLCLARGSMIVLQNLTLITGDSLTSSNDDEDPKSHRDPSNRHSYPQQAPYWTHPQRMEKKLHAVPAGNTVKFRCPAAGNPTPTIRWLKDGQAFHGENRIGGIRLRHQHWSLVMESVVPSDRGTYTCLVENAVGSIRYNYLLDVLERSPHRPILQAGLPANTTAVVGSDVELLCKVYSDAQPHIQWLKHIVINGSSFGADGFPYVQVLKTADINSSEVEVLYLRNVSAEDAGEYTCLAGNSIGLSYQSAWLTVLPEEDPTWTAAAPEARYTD


Legend:
[1] = target: T1, FGFR1-IIIb; test: SPR
Experimental: (§1) A saturated amount of anti-human Fc monoclonal antibody was immobilized onto a CM5 biosensor chip by following the product instructions. […] FGFR antigens of various concentrations were injected at a flow rate 30 μL/min. After each binding cycle, flow cells were regenerated using 3M MgCl₂. Kinetic analyses were performed using the T100 evaluation software to obtain the kinetic and affinity constants.
(§2) 1.3 variants were determined by capturing FGFR4-Fc and flowing the antibody Fab fragments (Table 12).

[2] = target: T2, FGFR3-IIIc; test: SPR
Experimental: as §1, §2

[3] = target: T3, FGFR2-IIIb (D2D3); test: SPR (Biacore)
[4] = target: T2, FGFR3-IIIc; test: SPR (Biacore T100), IgG captured by anti-human Fc, FGFR flowed
Experimental: as §1

[5] = target: T4, FGFR4; test: blocking ELISA: FGFR4-Fc captured on an anti-human Fc plate, antibody titrated, FGF-19 (with heparin) is the ligand, bound FGF-19 read as OD450
Experimental: (§3) The plate was washed 5 times before being added with the antibody and FGF ligand mixtures, which was prepared as 49 μL 100 ng/mL FGF ligand, 1 μL 25 mg/mL Heparin (Sigma-Aldrich) and 50 μL antibody dilutions. After shaking at RT for 2 h, the plate was washed 5 times. Bound ligand was detected by subsequent incubations at RT with 0.5 μg/mL biotinylated anti-FGF antibodies (R&D Biosystems) for 0.5 h, 1:2,500-diluted Streptavidin-HRP (Invitrogen) for 0.5 h and the TMB substrate until enough color development.

[6] = target: T7, FGFR2-IIIc (human, UniProt P21802 22-377); test: blocking ELISA: FGFR2-IIIc-Fc captured on an anti-human Fc plate, antibody titrated, FGF-1 (with heparin) is the ligand, bound FGF-1 read as OD450
T7 construct: also called human FGFR2-IIIc; FGFR2-IIIc-His
T7 sequence (P21802 22-377 limits assumed): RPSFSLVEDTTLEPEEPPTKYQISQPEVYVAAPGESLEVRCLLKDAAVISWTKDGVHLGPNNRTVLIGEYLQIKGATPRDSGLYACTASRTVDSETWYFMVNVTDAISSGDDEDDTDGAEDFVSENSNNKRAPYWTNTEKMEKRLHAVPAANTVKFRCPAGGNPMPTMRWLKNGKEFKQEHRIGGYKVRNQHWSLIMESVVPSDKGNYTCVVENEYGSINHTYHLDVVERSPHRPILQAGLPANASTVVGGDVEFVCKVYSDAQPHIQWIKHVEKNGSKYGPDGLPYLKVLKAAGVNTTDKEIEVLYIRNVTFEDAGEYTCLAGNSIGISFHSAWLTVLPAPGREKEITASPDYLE
Experimental: as §3

[7] = target: T2, FGFR3-IIIc; test: blocking ELISA: FGFR3-IIIc-Fc captured on an anti-human Fc plate, antibody titrated, FGF-1 (with heparin) is the blocked ligand, bound FGF-1 read as OD450
Experimental: as §3

[8] = target: T7, FGFR2-IIIc; test: SPR
Experimental: as §1, §2

[9] = target: T5, FGFR4-6xHis; test: SPR, IgG captured, FGFR4-6xHis flowed
Experimental: as §1, §2

[10] = target: T2, FGFR3-IIIc; test: surface plasmon resonance (Biacore)
[11] = target: T6, FGFR4-Fc; test: SPR, FGFR4-Fc captured, Fab flowed; FGFR4-Fc captured, Fab flowed
Experimental: Later, the KD for the 2B. 1.3 variants were determined by capturing FGFR4-Fc and flowing the antibody Fab fragments (Table 12).

Binder	binding result [1]	Kd [2] [nM]	binding result [3]	Kd [4] [nM]	binding result [5]	binding result [6]	IC50 (read off the curve) [7] [nM]	Kd [8] [nM]	Kd [9] [nM]	Kd [10] [nM]	Kd [11] [nM]
R3Mab (antibody, human IgG1, kappa, V domains shown, IgG in SPR; also called parental anti-FGFR3 antibody) VH: EVQLVESGGGLVQPGGSLRLSCAASGFTFTSTGISWVRQAPGKGLEWVGRIYPTNGSTNYADSVKGRFTISADTSKNTAYLQMNSLRAEDTAVYYCARTYGIYDLYVDYTEYVMDYWGQGTLVTVSS VL: DIQMTQSPSSLSASVGDRVTITCRASQDVDTSLAWYKQKPGKAPKLLIYSASFLYSGVPSRFSGSGSGTDFTLTISSLQPEDFATYYCQQSTGHPQTFGQGTKVEIKR	no binding	0.61	no binding (tested: 200 nM)	0.61	no binding (tested: 500 nM)	no binding (tested: 128 nM)	2 to 3	–	–	–	–
2B.1.1 (antibody, human IgG1, kappa, V domains shown, Full IgG1/kappa chains) VH: EVQLVESGGGLVQPGGSLRLSCAASGFTFTSTGISWVRQAPGKGLEWVGRYWAWDGSTNYADSVKGRFTISADTSKNTAYLQMNSLRAEDTAVYYCARTYGIYDLYVDYTEYVMDYWGQGTLVTVSS VL: DIQMTQSPSSLSASVGDRVTITCRASQDVDTSLAWYKQKPGKAPKLLIYSASFLYSGVPSRFSGSGSGTDFTLTISSLQPEDFATYYCQQSTGHPQTFGQGTKVEIKR	no binding	–	–	–	–	–	–	2.8	2.8	0.0663	–
Fab fragment of Mab 2B.1.3 (Fab, V domains shown, Fab; also called 2B.1.3 Fab; Fab 2B.1.3) VH: EVQLVESGGGLVQPGGSLRLSCAASGFTFTSTGISWVRQAPGKGLEWVGRTHLGDGSTNYADSVKGRFTISADTSKNTAYLQMNSLRAEDTAVYYCARTYGIYDLYVDYTEYVMDYWGQGTLVTVSS VL: DIQMTQSPSSLSASVGDRVTITCRASQDVDTSLAWYKQKPGKAPKLLIYSASFLYSGVPSRFSGSGSGTDFTLTISSLQPEDFATYYCQQSTGHPQTFGQGTKVEIKR	–	–	–	–	–	–	–	–	–	–	32
